Source: PMC4125281, “Capsid Protein VP4 of Human Rhinovirus Induces Membrane Permeability by the Formation of a Size-Selective Multimeric Pore” (PLoS Pathogens, 2014)
*: point of attachment. Myristoyl = CCCCCCCCCCCCCC(=O)*

Legend:
[1] = molecular target: the molecule itself; assay: cross-linking; VP4His incubated with liposomes (50 uM lipid) at 25 C for 1 hr, DSP 0.5 mM or 1 mM for 20 min at 25 C; non-reducing SDS-PAGE, western blot with antisera to VP4; cross-linking reversed with 50 mM DTT in some samples
[2] = molecular target: the molecule itself; assay: SDS-PAGE without cross-linking (multimers that survive SDS); VP4His incubated with liposomes, no DSP (Fig. 5B lane 5); non-reducing SDS-PAGE, western blot with antisera to VP4

B1: recombinant myristoylated human rhinovirus 16 VP4 with six histidines at the C-terminus (VP4His) (natural protein)
chain: Myristoyl-MGAQVSRQNVGTHSTQNMVSNGSSLNYFNINYFKDAASSGASRLDFSQDPSKFTDPVKDVLEKGIPTLQ-{H2N-H2N-H2N-H2N-H2N-H2N}
notes: capsid protein VP4 of human rhinovirus 16 (HRV16), the cut product VP4 of the genome polyprotein; native VP4 about 7.4 kDa, VP4His about 8.2 kDa; Plasmid pETVP4His (pET23d); also called recombinant VP4; not shown: His6, C-terminal, kept
[1]
  stoichiometry N: 6
[2]
  stoichiometry N: 2
